Legend:
[1] = target: T1, recombinant VEGF MiniTrap (dimer) MT5 (human); assay: affinity chromatography on the mAb1 column, repeated run, 19.6 mg MT5 loaded
T1 construct: also called VEGF MiniTrap 5
T1 chain: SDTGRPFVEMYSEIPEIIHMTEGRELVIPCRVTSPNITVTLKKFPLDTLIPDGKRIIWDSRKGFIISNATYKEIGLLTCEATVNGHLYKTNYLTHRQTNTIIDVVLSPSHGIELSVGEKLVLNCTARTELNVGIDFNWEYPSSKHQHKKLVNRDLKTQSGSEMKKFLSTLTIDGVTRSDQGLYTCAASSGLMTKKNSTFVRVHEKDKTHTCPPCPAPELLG

[2] = target: T1, recombinant VEGF MiniTrap (dimer) MT5; assay: affinity chromatography on the mAb1 column, repeated run, 19.7 mg MT5 loaded

- Eluate [1]: 2 mg
- Eluate [2]: 1.8 mg
B1: mAb1 (a mouse anti-VEGFR1 mAb human IgG1) (antibody)
heavy: not shown
light: DIQMTQSPSSLSASLGGKVTITCTTSQDSNNYIAWYQHKPGKGPRLLIHYASTLQPGIPSRFSGSGSGRDYSFSISNLEPEDIATYFCLQYDYLWTFGGGTKLELKRTVAAPSVFIFPPSDEQLKSGTASVVCLLNNFYPREAKVQWKVDNALQSGNSQESVTEQDSKDSTYSLSSTLTLSKADYEKHKVYACEVTHQGLSSPVTKSFNRGEC
